Measurements as given in US20240132578A1.

What was measured:
Test in all cases: cell-based or functional assay
[1] = biological target: HIV-1 Env of pseudovirus ZM249 (HIV-1)
[2] = biological target: HIV-1 Env of pseudovirus DU422 (HIV-1)
[3] = biological target: HIV-1 Env of pseudovirus ZM233 (HIV-1)
[4] = biological target: HIV-1 Env of isolate 92UG024 (clade D) (HIV-1)
[5] = biological target: HIV-1 Env of isolate MGRM-C-026 (clade C) (HIV-1)
[6] = biological target: HIV-1 Env of isolate 92TH021 (clade AE) (HIV-1)
[7] = biological target: HIV-1 Env of isolate MGRM-C-027 (clade C) (HIV-1)
[8] = biological target: HIV-1 Env of isolate 94UG103 (clade A) (HIV-1)
[9] = biological target: HIV-1 Env of isolate 93IN905 (clade C) (HIV-1)
[10] = biological target: HIV-1 94UG103 Env (HIV-1 isolate 94UG103 (clade A))
[11] = biological target: HIV-1 MGRM-C-028 envelope glycoprotein (Env), clade C pseudovirus (HIV-1)
[12] = biological target: HIV-1 93UG077 envelope glycoprotein (Env), clade A pseudovirus (HIV-1)
[13] = biological target: HIV-1 JR-CSF Env K343A (HIV-1 isolate JR-CSF) (UniProt P20871)
[14] = biological target: aMLV envelope protein on virus (negative control) (aMLV)
[15] = biological target: HIV-1 92UG005 envelope glycoprotein (Env) on virus (HIV-1, clade D, isolate 92UG005)
[16] = biological target: HIV-1 MGRM-A-010 envelope glycoprotein (Env) on virus (HIV-1, clade A, isolate MGRM-A-010)
[17] = biological target: HIV-1 NL43 envelope glycoprotein (Env) on virus (HIV-1, clade B, isolate NL43)
[18] = biological target: HIV-1 92RW020 Env (pseudovirus) (HIV-1)
[19] = biological target: HIV-1 APV13 Env (pseudovirus) (HIV-1)
[20] = biological target: HIV-1 envelope glycoprotein (Env) of isolate MGRM-D-001 (HIV-1)
[21] = biological target: HIV-1 APV6 envelope glycoprotein (Env) (HIV-1)
[22] = biological target: HIV-1 92UG005 envelope glycoprotein (Env) (HIV-1)
[23] = biological target: HIV-1 93IN905 envelope glycoprotein (Env) (HIV-1)
aMLV envelope protein = biological target: aMLV envelope protein
[24] = biological target: HIV-1 NL43 envelope glycoprotein (Env) (HIV-1)
[25] = biological target: HIV-1 93UG077 envelope glycoprotein (Env) (HIV-1)
[26] = biological target: HIV-1 92BR020 envelope glycoprotein (Env) (HIV-1)
[27] = biological target: HIV-1 94UG103 envelope glycoprotein (Env) (HIV-1)
[28] = biological target: HIV-1 92RW020 envelope glycoprotein (Env) on pseudovirus (HIV-1)
[29] = biological target: HIV-1 envelope glycoprotein (Env) of isolate 92UG037 (HIV-1)
[30] = biological target: HIV-1 Env of isolate MG RM-D-018 (subtype D) (HIV-1)
[31] = biological target: HIV-1 Env of isolate MG RM-D-029 (subtype D) (HIV-1)
[32] = biological target: HIV-1 envelope glycoprotein (Env) of isolate MG RM-A-001 (HIV-1)

Chain of 5329_C19 (PGT-136) (antibody) (VH): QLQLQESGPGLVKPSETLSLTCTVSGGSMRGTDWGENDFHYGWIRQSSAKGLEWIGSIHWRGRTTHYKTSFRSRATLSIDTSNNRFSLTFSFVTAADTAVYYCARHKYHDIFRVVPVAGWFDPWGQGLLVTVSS
Chain of 5329_C19 (PGT-136) (antibody) (VL): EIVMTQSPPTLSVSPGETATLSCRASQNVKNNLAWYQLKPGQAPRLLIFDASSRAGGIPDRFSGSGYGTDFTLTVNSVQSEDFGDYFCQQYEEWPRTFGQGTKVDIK
Chain of 1443_C16 (PG16) (TCN-116) (antibody) (VH): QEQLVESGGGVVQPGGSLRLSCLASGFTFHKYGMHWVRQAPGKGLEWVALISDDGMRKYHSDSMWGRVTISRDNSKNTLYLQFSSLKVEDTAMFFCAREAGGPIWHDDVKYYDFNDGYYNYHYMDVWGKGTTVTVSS
Chain of 1443_C16 (PG16) (TCN-116) (antibody) (VL): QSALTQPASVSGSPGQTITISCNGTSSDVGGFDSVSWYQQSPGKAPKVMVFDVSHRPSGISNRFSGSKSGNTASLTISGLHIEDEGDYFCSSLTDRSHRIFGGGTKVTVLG

## 1443_C16 (PG16) (TCN-116) (antibody)
[1]
  IC50, pseudovirus neutralization (TZM-bl assay): < 0.01 µg/mL
[2]
  IC50, pseudovirus neutralization (TZM-bl assay): 0.59 µg/mL
[3]
  IC50, pseudovirus neutralization (TZM-bl assay): < 0.01 µg/mL

## 1496_C09 (PG9) (TCN-109) (antibody)
[4]
  neutralization IC50: 1.91 µg/mL
[5]
  neutralization IC50: 0.113 µg/mL
[6]
  Neutralization IC80: 0.448 µg/mL
  Neutralization IC90: 1.07 µg/mL
  Neutralization IC95: 2.43 µg/mL
  neutralization IC50: 0.103 µg/mL
[7]
  neutralization IC50: 2.45 µg/mL
[8]
  Neutralization IC80: 1.95 µg/mL
  Neutralization IC90: 5.54 µg/mL
  neutralization IC50: 0.31 µg/mL
[9]
  Neutralization IC80: 0.308 µg/mL
  Neutralization IC90: 0.981 µg/mL
  Neutralization IC95: 3.31 µg/mL
  neutralization IC50: 0.048 µg/mL

## 4838_L06 (PGT-121) (antibody)
[10]
  Neutralization IC80: 8.85 µg/mL

## 4858_P08 (PGT-123) (antibody)
[11]
  IC50, pseudovirus neutralization: 0.443 µg/mL
  IC80 (pseudovirus neutralization): 2.8 µg/mL
  IC90 (pseudovirus neutralization): 7.11 µg/mL
  IC95 (pseudovirus neutralization): > 10 µg/mL
[12]
  IC50, pseudovirus neutralization: 0.0303 µg/mL
  IC80 (pseudovirus neutralization): 0.143 µg/mL
  IC90 (pseudovirus neutralization): 0.35 µg/mL
  IC95 (pseudovirus neutralization): 0.78 µg/mL
[13]
  Fold IC50 increase relative to wild-type: 0.3 fold

## 4877_D15 (PGT-122) (antibody)
[14]
  Neutralization IC80: > 10 µg/mL
  Neutralization IC90: > 10 µg/mL
  Neutralization IC95: > 10 µg/mL
  neutralization IC50: > 10 µg/mL
[15]
  Neutralization IC80: > 10 µg/mL
  Neutralization IC90: > 10 µg/mL
  Neutralization IC95: > 10 µg/mL
  neutralization IC50: > 10 µg/mL
[16]
  Neutralization IC80: > 10 µg/mL
  Neutralization IC90: > 10 µg/mL
  Neutralization IC95: > 10 µg/mL
  neutralization IC50: 1.68 µg/mL
[17]
  Neutralization IC80: > 10 µg/mL
  Neutralization IC90: > 10 µg/mL
  Neutralization IC95: > 10 µg/mL
  neutralization IC50: > 10 µg/mL

## 5123_A06 (PGT-125) (antibody)
[18]
  Neutralization by PGT-125, IC50: 0.0028 µg/mL
  Neutralization by PGT-125, IC80: 0.011 µg/mL
  Neutralization by PGT-125, IC90: 0.0248 µg/mL
  Neutralization by PGT-125, IC95: 0.0526 µg/mL
[19]
  Neutralization by PGT-125, IC50: 0.0128 µg/mL
  Neutralization by PGT-125, IC80: 0.0414 µg/mL
  Neutralization by PGT-125, IC90: 0.0821 µg/mL
  Neutralization by PGT-125, IC95: 0.154 µg/mL

## 5141_B17 (PGT-126) (antibody)
[20]
  Neutralization IC80: 0.333 µg/mL
  Neutralization IC90: 0.832 µg/mL
  Neutralization IC95: 1.8 µg/mL
  neutralization IC50: 0.0639 µg/mL

## 5329_C19 (PGT-136) (antibody)
[21]
  Neutralization IC80: > 10 µg/mL
  Neutralization IC90: > 10 µg/mL
  Neutralization IC95: > 10 µg/mL
  neutralization IC50: > 10 µg/mL
[22]
  Neutralization IC80: > 10 µg/mL
  Neutralization IC90: > 10 µg/mL
  Neutralization IC95: > 10 µg/mL
  neutralization IC50: > 10 µg/mL
[23]
  Neutralization IC80: 0.0623 µg/mL
  Neutralization IC90: 0.156 µg/mL
  Neutralization IC95: 0.379 µg/mL
  neutralization IC50: 0.0135 µg/mL
aMLV envelope protein
  Neutralization IC80: > 10 µg/mL
  Neutralization IC90: > 10 µg/mL
  Neutralization IC95: > 10 µg/mL
  neutralization IC50: > 10 µg/mL
[24]
  Neutralization IC80: > 10 µg/mL
  Neutralization IC90: > 10 µg/mL
  Neutralization IC95: > 10 µg/mL
  neutralization IC50: > 10 µg/mL
[25]
  Neutralization IC80: > 10 µg/mL
  Neutralization IC90: > 10 µg/mL
  Neutralization IC95: > 10 µg/mL
  neutralization IC50: > 10 µg/mL
[26]
  Neutralization IC80: > 10 µg/mL
  Neutralization IC90: > 10 µg/mL
  Neutralization IC95: > 10 µg/mL
  neutralization IC50: > 10 µg/mL
[27]
  Neutralization IC80: > 10 µg/mL
  Neutralization IC90: > 10 µg/mL
  Neutralization IC95: > 10 µg/mL
  neutralization IC50: > 10 µg/mL

## 5343_B08 (PGT-135) (antibody)
[28]
  Neutralization IC80: 3.46 µg/mL
  Neutralization IC90: > 10 µg/mL
  Neutralization IC95: > 10 µg/mL
  neutralization IC50: 0.157 µg/mL

## PGV04 (antibody)
[29]
  IC50: 0.145 µg/mL
[30]
  IC50 (µg/mL), pseudovirus neutralization: 17.5 µg/mL
[31]
  IC50 (µg/mL), pseudovirus neutralization: 1.56 µg/mL
[32]
  IC50: 6.78 µg/mL
